Patent publication US20230147852A1 (SORRENTO THERAPEUTICS, published 2023)

Target: T1, Recombinant human LAG3-His (Sino Biological; catalogue No. 16498-H08H) (human, UniProt P18627 23-450)
T1 construct: also called human LAG3 His-tag protein; CD223
T1 sequence: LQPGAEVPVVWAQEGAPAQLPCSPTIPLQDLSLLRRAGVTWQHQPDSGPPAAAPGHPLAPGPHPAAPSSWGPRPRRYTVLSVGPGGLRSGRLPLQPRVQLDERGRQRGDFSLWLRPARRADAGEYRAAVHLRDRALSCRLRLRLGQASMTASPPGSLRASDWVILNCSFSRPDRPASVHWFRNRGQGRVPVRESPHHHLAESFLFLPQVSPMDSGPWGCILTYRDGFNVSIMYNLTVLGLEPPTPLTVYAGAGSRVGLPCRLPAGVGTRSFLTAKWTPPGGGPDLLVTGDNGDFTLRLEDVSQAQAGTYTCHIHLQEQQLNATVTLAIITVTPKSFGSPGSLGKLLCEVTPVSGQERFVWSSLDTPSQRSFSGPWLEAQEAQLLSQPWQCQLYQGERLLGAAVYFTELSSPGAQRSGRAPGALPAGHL
Experiment: ELISA: antibody coated at 5 µg/mL, soluble human LAG3-His titrated (x-axis: Human LAG3, µg/ml), OD at 450nm

B1: 2D12-2E3-N102D (antibody, V domains shown)
VH: EVQLVESGGGLVQPGRSLRLSCVASGDGMSDYDMHWVRQAPGKGLEWVSGIGWNSGTIDYADSVKGRFIISRDNAKNSLYLQMNSLRPEDTALYYCAKEILDYSWMSVYGMDVWGQGTTVTVSS
VL: DIQMTQSPSSLSASVGDRVTITCRASQNIGTYLNWYQQSPGKAPKLLIYGASSLHSGVPSRVSGSGSGTDFTLTINTLQPEDFATYFCQQSYNTPPTFGQGTKVEIK
notes: also called anti-LAG3 antibody 2D12-2E3-N102D
EC50 (read off the curve): ~0.04 µg/mL
